Data as given in IntAct's records for PubMed 20598684.

B1: Abl interactor 1 (Homo sapiens), Q8IZP0 (parent)
chain: MAELQMLLEEEIPSGKRALIESYQNLTRVADYCENNYIQATDKRKALEETKAYTTQSLASVAYQINALANNVLQLLDIQASQLRRMESSINHISQTVDIHKEKVARREIGILTTNKNTSRTHKIIAPANMERPVRYIRKPIDYTVLDDVGHGVKWLKAKHGNNQPARTGTLSRTNPPTQKPPSPPMSGRGTLGRNTPYKTLEPVKPPTVPNDYMTSPARLGSQHSPGRTASLNQRPRTHSGSSGGSGSRENSGSSSIGIPIAVPTPSPPTIGPENISVPPPSGAPPAPPLAPLLPVSTVIAAPGSAPGSQYGTMTRQISRHNSTTSSTSSGGYRRTPSVTAQFSAQPHVNGGPLYSQNSISIAPPPPPMPQLTPQIPLTGFVARVQENIADSPTPPPPPPPDDIPMFDDSPPPPPPPPVDYEDEEAAVVQYNDPYADGDPAWAPKNYIEKVVAIYDYTKDKDDELSFMEGAIIYVIKKNDDGWYEGVCNRVTGLFPGNYVESIMHYTD

Variants of: B1
Settings: with p85a_human PIK3R1, P27986
Sequence of p85a_human PIK3R1, P27986 (P27986 whole entry): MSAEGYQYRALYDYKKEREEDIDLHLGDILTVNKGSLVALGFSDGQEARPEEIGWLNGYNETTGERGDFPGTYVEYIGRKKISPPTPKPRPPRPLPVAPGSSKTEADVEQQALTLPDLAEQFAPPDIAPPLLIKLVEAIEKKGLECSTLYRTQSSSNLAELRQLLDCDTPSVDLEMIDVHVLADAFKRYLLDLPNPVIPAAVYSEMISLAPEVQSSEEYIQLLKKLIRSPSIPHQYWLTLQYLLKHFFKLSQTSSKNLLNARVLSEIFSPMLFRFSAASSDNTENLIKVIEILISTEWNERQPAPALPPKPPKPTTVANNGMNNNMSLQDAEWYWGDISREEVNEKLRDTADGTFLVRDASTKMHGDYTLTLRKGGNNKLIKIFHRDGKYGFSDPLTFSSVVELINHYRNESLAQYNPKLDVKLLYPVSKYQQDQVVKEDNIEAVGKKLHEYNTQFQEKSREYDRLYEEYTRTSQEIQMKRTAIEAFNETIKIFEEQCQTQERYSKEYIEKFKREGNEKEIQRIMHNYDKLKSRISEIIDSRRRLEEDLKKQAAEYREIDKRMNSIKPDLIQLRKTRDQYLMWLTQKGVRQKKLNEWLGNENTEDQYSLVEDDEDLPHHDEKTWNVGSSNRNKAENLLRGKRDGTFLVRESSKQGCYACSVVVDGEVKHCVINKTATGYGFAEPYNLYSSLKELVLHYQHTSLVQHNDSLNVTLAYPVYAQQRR

effect of a mutation on the interaction | Variant
disrupting interaction | Y213F
